# B1: Hat2, full-length, yeast (natural protein)
# chain: MENQEKPLSVDEEYDLWKSNVPLMYDFVSETRLTWPSLTVQWLPTPVQELDGGFIKQELIIGTHTSGEEENYLKFAEINLPKEILSNEDPQEEAGEEYQSSLPAPRSNIRITAKYEHEEEITRARYMPQDPNIVATINGQGTVFLYSRSEGLQSTLKFHKDNGYALSFSTLVKGRLLSGSDDHTVALWEVGSGGDPTKPVRTWNDLHSDIINDNKWHNFNKDLFGTVSEDSLLKINDVRANNTTIDTVKCPQPFNTLAFSHHSSNLLAAAGMDSYVYLYDLRNMKEPLHHMSGHEDAVNNLEFSTHVDGVVVSSGSDNRLMMWDLKQIGAEQTPDDAEDGVPELIMVHAGHRSSVNDFDLNPQIPWLVASAEEENILQVWKCSHSLPIVGGPPKVNKDIIS
# Legend:
# [1] = biological target: histone H4(7–102), yeast (yeast, UniProt P02309 8-103); assay: crystal structure
# [2] = biological target: B1; assay: crystal structure
binding result [1],binding result [2],Binder
binds,,B1
binds,binds,"BRIL-fused Hat1ΔC (yeast Hat1 residues 1–320) (enzyme, UniProt Q12341 1-320, looked up) MSANDFKPETWTSSANEALRVSIVGENAVQFSPLFTYPIYGDSEKIYGYKDLIIHLAFDSVTFKPYVNVKYSAKLGDDNIVDVEKKLLSFLPKDDVIVRDEAKWVDCFAEERKTHNLSDVFEKVSEYSLNGEEFVVYKSSLVDDFARRMHRRVQIFSLLFIEAANYIDETDPSWQIYWLLNKKTKELIGFVTTYKYWHYLGAKSFDEDIDKKFRAKISQFLIFPPYQNKGHGSCLYEAIIQSWLEDKSITEITVEDPNEAFDDLRDRNDIQRLRKLGYDAVFQKHSDLSDEFLESSRKSLKLEERQFNRLVEMLLLLNNS"
